Measurements taken from the supplement of paper PMC10724198.
“And” between values parts separate entries of the source, which are not always exact repeats. Equal entries are not always repeated. ± gives the standard deviation of the averaged measurements.

These sequences were tested on Saccharomyces cerevisiae (assay: protein stability index of tFT-peptide fusion in deletion strain of DAS1 (PSI (0-1 scale)); higher = more stable (slower turnover)). Settings: not given.
Description: (§1)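 MPS profiling in S. cerevisiae of two library types built from selected 12-aa C-degron peptides (IN1, IN2, LN1, LN3, VN2, R1-R5, W1-W3, Atg1 and Rpa12 C-termini): saturation mutagenesis libraries and C-terminal +1 capping libraries (13 aa). Each peptide is fused to the C-terminus of a sfGFP-mCherry timer, after a GGGS linker. Cells are FACS-sorted into 8 mCherry/sfGFP bins and sequenced. PSI runs from 0 (unstable) to 1 (stable), measured once in wild type and in the das1Δ or doa10Δ background.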
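Throughout, for protein stability index of tFT-peptide fusion (C-terminal peptide): PSI is a weighted mean of sequencing reads over stability bins, variants kept only with over 10 reads, mCherry proximal and sfGFP distal, peptide attached via GGGS linker.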
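Throughout, for protein stability index of tFT-peptide fusion in deletion strain of DAS1: PSI is a weighted mean of each variant's read distribution over the sorted stability bins, computed only for variants having over 10 reads in total.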
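Throughout, for protein stability index of tFT-peptide fusion in wild type: PSI derived as read-weighted mean over the 8 sorting bins, only variants exceeding 10 total reads kept, mCherry placed adjacent to the peptide and sfGFP distal.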

| Sequence | protein stability index |
| --- | --- |
| PDKRNHLIKLLI | 0.594 |
| PDKRNHLIKLLN | 0.661 and 0.625 |
| PDKRNHLIKLPN | 0.587 |
| PDKRNHLIKLQN | 0.737 |
| PDKRNHLIKLVN | 0.645 |
| PDKRNHLIKPLN | 0.586 |
| PDKRNHLIKRLN | 0.602 |
| PDKRNHLIMLLN | 0.624 |
| PDKRNHLIPLLN | 0.585 |
| PDKRNHLIQLLN | 0.616 |
| PDKRNHLITLLN | 0.622 |
| PDKRNHLQKLLN | 0.582 |
| PDKRNHVIKLLN | 0.605 |
| PDKRNHWIKLLN | 0.567 |
| PDKRNVLIKLLN | 0.589 |
| PDKRNWLIKLLN | 0.675 |
| PDKRSHLIKLLN | 0.631 |
| PDKWNHLIKLLN | 0.576 |
| PDLRNHLIKLLN | 0.614 |
| PSGAASFWRVVG | 0.668 |
| PSLAASFERVVG | 0.675 |
| PSLAASFHRVVG | 0.649 |
| PSLAASFIRVVG | 0.435 |
| PSLAASFVRVVG | 0.514 |
| PSLAASFWGVVG | 0.715 |

| Sequence | protein stability index |
| --- | --- |
| PSLAASFWLVVG | 0.611 |
| PSLAASFWRAVG | 0.699 |
| PSLAASFWREVG | 0.705 |
| PSLAASFWRVCG | 0.659 |
| PSLAASFWRVLG | 0.68 |
| PSLAASFWRVPG | 0.689 |
| PSLAASFWRVVGK | 0.689 |
| PSLAASFWRVVGT | 0.698 |
| PSLAASFWRVVP | 0.688 |
| PSLAATFWRVVG | 0.674 |
| PSLACSFWRVVG | 0.675 |
| PSLAYSFWRVVG | 0.693 |
| PSLDASFWRVVG | 0.677 |
| PSLFASFWRVVG | 0.694 |
| PSLPASFWRVVG | 0.685 |
| PSLRASFWRVVG | 0.688 |
| PSRAASFWRVVG | 0.691 |
| PSWAASFWRVVG | 0.714 |
| PTLAASFWRVVG | 0.703 |
| PVLAASFWRVVG | 0.68 |
| PYLAASFWRVVG | 0.699 |
| QVVYLSCVACIN | 0.0307 |
| RCIQPLPVQFLN | 0.572 |
| RLICPLPVQFLN | 0.562 |
| RLIQNLPVQFLN | 0.57 |

| Sequence | protein stability index |
| --- | --- |
| RLIQPFPVQFLN | 0.778 |
| RLIQPLCVQFLN | 0.605 |
| RLIQPLGVQFLN | 0.66 |
| RLIQPLPCQFLN | 0.587 |
| RLIQPLPVEFLN | 0.586 |
| RLIQPLPVQALN | 0.569 |
| RLIQPLPVQDLN | 0.576 |
| RLIQPLPVQFCN | 0.681 |
| RLIQPLPVQFFN | 0.563 |
| RLIQPLPVQFLD | 0.573 |
| RLIQPLPVQFLNR | 0.669 |
| RLIQPLPVQFLQ | 0.647 |
| RLIQPLPVQFNN | 0.6 |
| RLIQPLPVQVLN | 0.46 |
| RLIQPLPVQYLN | 0.661 |
| RLIQPLPVSFLN | 0.593 |
| RLIQPSPVQFLN | 0.683 |
| RLIQQLPVQFLN | 0.602 |
| RLIRPLPVQFLN | 0.593 |
| RLQQPLPVQFLN | 0.574 |
| RLYQPLPVQFLN | 0.586 |
| VRGACGGWRLVG | 0.677 |
| VRGAGGGWRLVG | 0.663 |
| VRGARGGWRLVG | 0.686 |
| VRGAVEGWRLVG | 0.692 |

| Sequence | protein stability index |
| --- | --- |
| VRGAVFGWRLVG | 0.678 |
| VRGAVGFWRLVG | 0.687 |
| VRGAVGGHRLVG | 0.703 |
| VRGAVGGWLLVG | 0.668 |
| VRGAVGGWRAVG | 0.67 |
| VRGAVGGWRLAG | 0.695 |
| VRGAVGGWRLHG | 0.662 |
| VRGAVGGWRLPG | 0.681 |
| VRGAVGGWRLVG | 0.681 |
| VRGAVGGWRLVGT | 0.689 |
| VRGAVGGWRLVR | 0.682 |
| VRGAVGGWRLYG | 0.686 |
| VRGAVGWWRLVG | 0.665 |
| VRGAVGYWRLVG | 0.668 |
| VRGAVNGWRLVG | 0.694 |
| VRGAVRGWRLVG | 0.7 |
| VRGAVYGWRLVG | 0.666 |
| VRGRVGGWRLVG | 0.675 |
| VRIAVGGWRLVG | 0.68 |
| VRWRVGLWRGAS | 0.648 |
| VSMRWTFRYWVN | 0.509 |
| WKILRQKMNHQN | 0.678 |
| YRGAVGGWRLVG | 0.664 |

What follows are sequences tested on Saccharomyces cerevisiae (assay: protein stability index of tFT-peptide fusion (C-terminal peptide) (PSI (0-1 scale)); higher = more stable (slower turnover)). Settings: genetic background: cdc34-1; temperature: 37 C.
Description: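 MPS profiling in S. cerevisiae of the tFT-X12 degron library: putative degron peptides plus stable controls, 12 aa, fused to the C-terminus of a sfGFP-mCherry timer. Cells are FACS-sorted into 8 mCherry/sfGFP bins and deep-sequenced. PSI runs from 0 (unstable) to 1 (stable). Backgrounds are wild type, das1Δ and doa10Δ at 30 °C, and wild type, das1Δ, cdc34-1 and cdc53-1 at 37 °C; 2-3 technical replicates each.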

| Sequence | protein stability index |
| --- | --- |
| PDKRNHLIKLLN | 0.537 ± 0.022 |
| VRGAVGGWRLVG | 0.572 ± 0.059 |

Same assay, conditions: genetic background: cdc53-1; temperature: 37 C

| Sequence | protein stability index |
| --- | --- |
| PDKRNHLIKLLN | 0.691 ± 0.03 |
| VRGAVGGWRLVG | 0.754 ± 0.032 |

Same assay, conditions: genetic background: das1 deletion; temperature: 30 C

| Sequence | protein stability index |
| --- | --- |
| PDKRNHLIKLLN | 0.648 ± 0.029 |
| VRGAVGGWRLVG | 0.629 ± 0.013 |

Same assay, conditions: genetic background: das1 deletion; temperature: 37 C

| Sequence | protein stability index |
| --- | --- |
| PDKRNHLIKLLN | 0.704 ± 0.0085 |
| VRGAVGGWRLVG | 0.764 ± 0.016 |

Same assay, conditions: genetic background: doa10 deletion; temperature: 30 C

| Sequence | protein stability index |
| --- | --- |
| PDKRNHLIKLLN | 0.0937 ± 0.024 |
| VRGAVGGWRLVG | 0.116 ± 0.028 |

Same assay, conditions: genetic background: wild type; temperature: 30 C

| Sequence | protein stability index |
| --- | --- |
| PDKRNHLIKLLN | 0.119 ± 0.0097 |
| VRGAVGGWRLVG | 0.131 ± 0.028 |

Same assay, conditions: genetic background: wild type; temperature: 37 C

| Sequence | protein stability index |
| --- | --- |
| PDKRNHLIKLLN | 0.153 ± 0.031 |
| VRGAVGGWRLVG | 0.23 ± 0.0039 |

What follows are sequences tested on Saccharomyces cerevisiae (assay: protein stability index of tFT-peptide fusion in wild type (PSI (0-1 scale)); higher = more stable (slower turnover)). Settings: genetic background: wild type.
Description: as §1

| Sequence | protein stability index |
| --- | --- |
| AIALPMCPLLLR | 0.231 |
